Patent publication US20220213181A1 (Novartis, published 2022)
Values joined by “and” are separate entries in the source; they are usually repeats but may differ in a detail not shown here. Equal values may be shown once. Values belong to the binder of their own block, whether it stands above or below them.

Key:
[1] = biological target: T1, Mouse ANGPTL4(26-410)-FLAG-His6-Avi (mouse, UniProt Q9Z1P8 24-410, biotin on the C-terminal Avi tag (BirA) where the protein is immobilised); assay: Octet (ForteBio) kinetics, biotinylated antigen on streptavidin sensor, IgG in solution
T1 sequence: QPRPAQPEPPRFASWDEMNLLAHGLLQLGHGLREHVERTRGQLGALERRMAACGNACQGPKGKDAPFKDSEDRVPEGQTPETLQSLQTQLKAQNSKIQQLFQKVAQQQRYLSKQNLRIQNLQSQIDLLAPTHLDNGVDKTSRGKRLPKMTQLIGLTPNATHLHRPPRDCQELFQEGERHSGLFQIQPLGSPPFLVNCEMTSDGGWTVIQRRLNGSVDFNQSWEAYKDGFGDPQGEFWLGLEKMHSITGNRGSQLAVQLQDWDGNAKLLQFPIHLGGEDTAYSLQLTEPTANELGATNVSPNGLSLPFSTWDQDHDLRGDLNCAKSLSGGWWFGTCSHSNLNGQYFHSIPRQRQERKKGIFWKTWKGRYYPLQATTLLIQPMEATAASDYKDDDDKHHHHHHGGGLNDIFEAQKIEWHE

[2] = biological target: T2, Rat ANGPTL4(24-405)-FLAG-His6-Avi (rat, UniProt Q6TMA8 24-405, biotin on the C-terminal Avi tag (BirA) where the protein is immobilised); assay: as above
T2 sequence: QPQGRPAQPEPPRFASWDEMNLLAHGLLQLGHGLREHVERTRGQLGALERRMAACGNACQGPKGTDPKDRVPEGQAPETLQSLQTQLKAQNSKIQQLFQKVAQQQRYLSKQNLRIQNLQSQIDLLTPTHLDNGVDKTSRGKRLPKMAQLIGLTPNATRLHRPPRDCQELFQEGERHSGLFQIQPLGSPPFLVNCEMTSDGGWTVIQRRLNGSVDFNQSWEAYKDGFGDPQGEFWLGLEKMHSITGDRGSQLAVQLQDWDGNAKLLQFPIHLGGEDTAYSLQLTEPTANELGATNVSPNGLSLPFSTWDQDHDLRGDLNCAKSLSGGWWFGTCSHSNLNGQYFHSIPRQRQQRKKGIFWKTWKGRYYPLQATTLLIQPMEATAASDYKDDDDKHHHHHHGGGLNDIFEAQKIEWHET

[3] = biological target: T3, Human ANGPTL4(26-161)-FLAG-His6-Avi (human, biotin on the C-terminal Avi tag (BirA) where the protein is immobilised); assay: as above
T3 construct: also called human ANGPTL4 N-terminal coiled coil domain; hANGPTL4-CCD
T3 chain: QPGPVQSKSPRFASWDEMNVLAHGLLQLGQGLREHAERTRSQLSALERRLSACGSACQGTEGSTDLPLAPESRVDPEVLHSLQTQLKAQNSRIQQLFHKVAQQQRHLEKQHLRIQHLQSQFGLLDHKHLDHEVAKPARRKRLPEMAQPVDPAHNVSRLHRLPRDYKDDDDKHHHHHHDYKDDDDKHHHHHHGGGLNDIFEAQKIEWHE

[4] = biological target: T4, Human ANGPTL4(26-406)-FLAG-His6-Avi (human, UniProt Q9BY76 24-406, biotin on the C-terminal Avi tag (BirA) where the protein is immobilised); assay: as above
T4 construct: the text calls it 20 amino acids), then QP, ANGPTL4 26-406 and FLAG-His6-Avi; the signal peptide is left out here; also called full length human ANGPTL4; hANGPTL4
T4 sequence: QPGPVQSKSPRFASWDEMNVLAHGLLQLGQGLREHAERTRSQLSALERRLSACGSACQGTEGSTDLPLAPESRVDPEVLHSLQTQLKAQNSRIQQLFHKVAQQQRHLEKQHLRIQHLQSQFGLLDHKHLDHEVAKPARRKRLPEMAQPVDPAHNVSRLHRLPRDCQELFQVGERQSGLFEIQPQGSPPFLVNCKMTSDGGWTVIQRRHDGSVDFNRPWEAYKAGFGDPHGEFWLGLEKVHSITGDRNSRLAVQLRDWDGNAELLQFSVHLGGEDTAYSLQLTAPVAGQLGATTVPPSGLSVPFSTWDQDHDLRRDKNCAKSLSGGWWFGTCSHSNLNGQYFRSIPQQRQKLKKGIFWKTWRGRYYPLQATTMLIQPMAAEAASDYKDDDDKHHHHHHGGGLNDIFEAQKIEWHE

[5] = biological target: T2, Rat ANGPTL4(24-405)-FLAG-His6-Avi; assay: Octet (ForteBio) kinetics; average KD of the runs; Octet kinetics; average KD of the three rat runs
[6] = biological target: T2, Rat ANGPTL4(24-405)-FLAG-His6-Avi; assay: Octet (ForteBio) kinetics, biotinylated antigen on streptavidin sensor, IgG in solution; Octet kinetics, rat ANGPTL4 on the sensor, antibody up to 25 nM; run 2
[7] = biological target: T4, Human ANGPTL4(26-406)-FLAG-His6-Avi; assay: Octet (ForteBio) kinetics, biotinylated antigen on streptavidin sensor, IgG in solution; slower than the limit of detection (about 5e-6 s^-1)
Procedure: Dissociation constants (KD) were determined for selected antibodies of the invention by using an Octet (ForteBio) kinetic binding assay. ForteBio 10× Kinetics Buffer (ForteBio, catalog number 18-5032) was diluted 10-fold with DPBS (Life Technologies, catalog number 14190-136), and the resulting solution was added (0.2 ml per well) to a 96-well plate (Greiner, catalog number 65520). Streptavidin sensors (ForteBio, catalog number 18-5020) were immersed in the solution and equilibrated for at least 10 min at room temperature. In a second 96-well plate (Greiner, catalog number 65520), sensors were washed in 1× Kinetics buffer, and then immersed in 200 ul of 25 nM biotinylated human ANGPTL4 or a biotinylated reference protein (for background subtraction) for 1000 sec at […] room temperature. […] The sensors were then transferred to a well containing 200 μl 1× Kinetics buffer, and antibody dissociation was monitored for 1200 seconds. Background-corrected association and dissociation curves were globally fitted by Octet Software (ForteBio) to generate association (kₐ) and dissociation (kd) rate constants, which in turn were used to calculate equilibrium dissociation constants (KD).

- Kd [1]: 4.15 nM
- Kd [2]: 6.03 nM
- Kd [3]: ≤ 0.023 nM and 0.052 nM
- koff [3]: 9.2e-06 s⁻¹
- kon [3]: 220000 M⁻¹ s⁻¹ and 180000 M⁻¹ s⁻¹
- Kd [4]: 0.014 nM and 0.017 nM and ≤ 0.012 nM and 0.01 nM
- koff [4]: 5.9e-06 s⁻¹ and 6e-06 s⁻¹ and 7e-06 s⁻¹
- kon [4]: 410000 M⁻¹ s⁻¹ and 360000 M⁻¹ s⁻¹ and 430000 M⁻¹ s⁻¹ and 680000 M⁻¹ s⁻¹
- Kd [5]: 6.34 nM
- koff [6]: 0.0011 s⁻¹
- kon [6]: 170000 M⁻¹ s⁻¹
B1: NEG276-LALA (antibody, human IgG1, kappa, L234A L235A)
heavy: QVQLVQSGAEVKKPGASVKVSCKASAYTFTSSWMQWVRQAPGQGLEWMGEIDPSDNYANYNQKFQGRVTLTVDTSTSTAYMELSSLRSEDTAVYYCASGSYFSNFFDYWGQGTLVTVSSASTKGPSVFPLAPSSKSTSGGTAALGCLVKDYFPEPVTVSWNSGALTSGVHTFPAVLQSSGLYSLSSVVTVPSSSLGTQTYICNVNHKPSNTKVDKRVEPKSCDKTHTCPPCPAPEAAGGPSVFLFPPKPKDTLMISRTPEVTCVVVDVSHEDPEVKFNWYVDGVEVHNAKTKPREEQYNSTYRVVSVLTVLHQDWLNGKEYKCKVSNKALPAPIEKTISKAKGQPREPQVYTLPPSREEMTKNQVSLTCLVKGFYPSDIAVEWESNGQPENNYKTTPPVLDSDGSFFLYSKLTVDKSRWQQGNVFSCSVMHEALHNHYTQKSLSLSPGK
light: EIVMTQSPATLSVSPGERATLSCKASQDIGSNLNWLQQKPGQAPRRLIYAVSNRGPGIPARFSGSRSGSEYTLTISSLQSEDFAVYYCLQYASSPWTFGQGTKVEIKRTVAAPSVFIFPPSDEQLKSGTASVVCLLNNFYPREAKVQWKVDNALQSGNSQESVTEQDSKDSTYSLSSTLTLSKADYEKHKVYACEVTHQGLSSPVTKSFNRGEC

- koff [7]: 6.7e-07 s⁻¹
B2: NEG278 (antibody, human IgG1, kappa, V domains shown)
VH: QVQLVQSGAEVKKPGASVKVSCKASAYTFTSSWMQWVRQAPGQGLEWMGEIDPSDNYANYNQKFQGRVTLTVDTSTSTAYMELSSLRSEDTAVYYCASGSYFSNFFDYWGQGTLVTVSS
VL: EIVMTQSPATLSVSPGERATLSCKASQDIGSNLNWLQQKPGQAPRRLIYAASVREPGIPARFSGSRSGSEYTLTISSLQSEDFAVYYCLQYASSPWTFGQGTKVEIKR
notes: humanized, hIgG1/kappa, parental antibody 19C16
